Results taken from US20230104217A1.

Assays:
[1] = target: Human IL-2 R alpha protein, His Tag (Acro, ILA-H52H9) (human) (UniProt P01589); test: BLI; details: ligand
[2] = target: Human IL-2 R beta protein, His-Tag (Acro, CD2-H5221) (human) (UniProt P14784); test: BLI; details: ligand
Chain of UniProt P14784 (P14784 27-239): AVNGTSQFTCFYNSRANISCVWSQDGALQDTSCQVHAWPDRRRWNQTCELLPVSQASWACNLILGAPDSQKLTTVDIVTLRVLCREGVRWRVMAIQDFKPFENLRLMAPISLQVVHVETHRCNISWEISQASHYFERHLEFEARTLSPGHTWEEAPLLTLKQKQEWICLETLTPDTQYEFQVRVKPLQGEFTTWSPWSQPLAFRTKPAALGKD

Chain of UniProt P01589 (P01589 22-213): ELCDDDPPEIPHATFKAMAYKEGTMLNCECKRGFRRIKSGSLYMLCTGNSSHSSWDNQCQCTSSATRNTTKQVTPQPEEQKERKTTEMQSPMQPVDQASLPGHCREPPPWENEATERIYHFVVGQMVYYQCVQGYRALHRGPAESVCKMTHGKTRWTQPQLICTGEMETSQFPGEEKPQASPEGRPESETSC

**Q.** What does the source list for “Proleukin (Novartis, hIL-2) (from UniProt P60568 22-153)”?
**A.** Kd [1]: 1.3 nM; Kd [2]: 91.7 nM
